Patent publication US9012420B2, “Aptamer for chymase, and use thereof” (Ribomic Inc., priority 2009, dated 2015)

Columns and labels:
chymase [1] = target: T1, chymase (Homo sapiens, UniProt P23946 P23946:22-247); test: inhibition; angiotensin I; recombinant 0.108; conditions: tags: human skin mast cell, Calbiochem
T1 sequence: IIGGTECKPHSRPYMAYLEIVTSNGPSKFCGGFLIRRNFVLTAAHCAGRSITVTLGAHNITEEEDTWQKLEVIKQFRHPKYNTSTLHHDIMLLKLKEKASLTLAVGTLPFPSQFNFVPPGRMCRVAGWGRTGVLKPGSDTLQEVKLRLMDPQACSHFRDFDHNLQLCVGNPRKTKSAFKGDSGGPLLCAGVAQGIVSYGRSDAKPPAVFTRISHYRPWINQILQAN
Procedure: (§1) The total volume of solution for an enzyme reaction in the assay was set to 50 μL, and the reaction was performed in solution C buffer. First, 0.3-0.75 ng of chymase (recombinant, (manufactured by SIGMA) or native (manufactured by Calbiochem)) was diluted with solution C to give 5 μL thereof. Here, the recombinant is chymase expressed by yeast, and the native is chymase purified from human skin mast cell. The nucleic acid was serially diluted with solution C at a concentration of 0.0027-2 μM to give 25 μL thereof. The chymase solution (5 μL) and the nucleic acid solution (25 μL) were mixed, and the mixture was incubated at 37° C. for 5 min. […] The whole mixture was centrifuged at 4° C., 14000 rpm for 10 min, and the supernatant (30 μL) was used for the next fluorescence induction reaction.
(§2) The above-mentioned supernatant (30 μL) was added to a 96 well plate (black, manufactured by Costar), a solution (15 μL) of 2% o-phthalaldehyde (manufactured by SIGMA) in methanol and 0.3M NaOH solution (170 μL) were added to each well, and the mixture was incubated at room temperature for 10 min. […] The plate was set on a microplate reader SpectraMax190 (manufactured by Molecular device) and the fluorescence intensity was measured at an excitation wavelength of 355 nm and a fluorescence wavelength of 460 nm.

chymase [2] = target: T1, chymase; test: inhibition; angiotensin I; recombinant 0.397; conditions: tags: human skin mast cell, Calbiochem
Procedure: as §1, §2

chymase (recombinant) [3] = target: T2, chymase (recombinant) (UniProt P23946 P23946:22-247); test: inhibition; SPR ++; conditions: tags: SIGMA, expressed in yeast
T2 sequence: T1 sequence
Procedure: (§3) Here, Suc is a protecting succinyl group, and MCA is a 4-methylcoumaryl-7-amide group; upon cleavage of the C-terminal side of phenylalanine, AMC (7-amino-4-methyl-coumarine) is released. By detecting the fluorescence of this AMC, the enzyme activity of chymase can be determined. The assay was performed using a 96-well plate (F16 Black Maxisorp Fluoronunc, manufactured by Nunc), with a reaction mixture volume of 100 μL, in solution C as a buffer solution. First, each nucleic acid was serially diluted to 0.0027-2 μM concentrations in solution C to obtain 50 μL solutions. After 10 μL of the 1 mM substrate prepared in solution C was added thereto, the plate was set to the microplate reader SpectraMax190 (manufactured by Molecular Devices Corporation), and incubated at 37° C. for 5 minutes. Separately, 0.05 μg (or 0.005 μg) of chymase (recombinant, manufactured by SIGMA) was diluted in solution C to obtain a 40 μL chymase solution, and incubated at 37° C. for 5 minutes. The chymase solution was added to the mixture of the nucleic acid and substrate to initiate an enzyme reaction. The final chymase concentration in the reaction mixture was 16.7 nM (or 1.67 nM), the final substrate concentration being 100 μM. The plate containing the reaction mixture was set to the microplate reader SpectraMax190 (manufactured by Molecular Devices Corporation), and examined for time-dependent changes in the fluorescence intensity at 37° C. for 5 minutes (or 30 minutes) (excitation wavelength 380 nm, detection wavelength 460 nm). A linear approximation of the increase in the fluorescence of the AMC released from the substrate by chymase activity was generated, and its slope was taken as the initial velocity […]. For control, samples were treated and analyzed in the same manner in two cases: use of a 30N or 40N (a nucleotide of 30 or 40 consecutive bases represented by N; N is A, G, C or T) nucleic acid pool (negative control), and use of chymostatin, a known chymotrypsin-like serine protease inhibitor (positive control). Taking the initial reaction velocity without the nucleic acid and inhibitor (V_0) as a 100% enzyme activity, the inhibitory rate of each test substance was calculated using the following equation: […]

[4] = target: T3, chymase (native, human skin mast cell) (Homo sapiens, UniProt P23946 P23946:22-247); test: inhibition; angiotensin I substrate; recombinant 0.041 uM; conditions: tags: Calbiochem
T3 sequence: T1 sequence
Procedure: as §1, §2

chymase [5] = target: T1, chymase; test: inhibition; angiotensin I; recombinant 0.274; conditions: tags: human skin mast cell, Calbiochem
Procedure: as §1, §2

chymase (recombinant) [6] = target: T2, chymase (recombinant); test: inhibition; SPR ++; conditions: tags: SIGMA, expressed in yeast; remark: listed apart in the source
Procedure: as §3
(§4) The chymase inhibitory activity was measured in the same manner as in Example 3.

[7] = target: T3, chymase (native, human skin mast cell); test: inhibition; angiotensin I substrate; recombinant 0.037 uM; conditions: tags: Calbiochem
Procedure: as §1, §2

chymase [8] = target: T1, chymase; test: inhibition; angiotensin I; recombinant 0.354; conditions: tags: human skin mast cell, Calbiochem
Procedure: as §1, §2

chymase (recombinant) [9] = target: T2, chymase (recombinant); test: inhibition; SPR not determined; conditions: tags: SIGMA, expressed in yeast
Procedure: as §3, with “The chymase solution was added to the mixture of the nucleic acid and substrate to initiate an enzyme reaction. The final chymase concentration in the reaction mixture was 16.7 nM (or 1.67 nM), the final substrate concentration being 100 μM.” left out
as §4

chymase [10] = target: T1, chymase; test: inhibition; angiotensin I; recombinant 0.055; conditions: tags: human skin mast cell, Calbiochem
Procedure: as §1, §2

[11] = target: T3, chymase (native, human skin mast cell); test: inhibition; angiotensin I substrate; recombinant 0.235 uM; conditions: tags: Calbiochem, stem-loop (MFOLD)
Procedure: as §1, §2

chymase (recombinant) [12] = target: T2, chymase (recombinant); test: inhibition; SPR ++; 0.027 uM in Table 6; conditions: tags: SIGMA, expressed in yeast; stem-loop (MFOLD)
Procedure: (§5) Here, Suc is a protecting succinyl group, and MCA is a 4-methylcoumaryl-7-amide group; upon cleavage of the C-terminal side of phenylalanine, AMC (7-amino-4-methyl-coumarine) is released. By detecting the fluorescence of this AMC, the enzyme activity of chymase can be determined. The assay was performed using a 96-well plate (F16 Black Maxisorp Fluoronunc, manufactured by Nunc), with a reaction mixture volume of 100 μL, in solution C as a buffer solution. First, each nucleic acid was serially diluted to 0.0027-2 μM concentrations in solution C to obtain 50 μL solutions. After 10 μL of the 1 mM substrate prepared in solution C was added thereto, the plate was set to the microplate reader SpectraMax190 (manufactured by Molecular Devices Corporation), and incubated at 37° C. for 5 minutes. […] The plate containing the reaction mixture was set to the microplate reader SpectraMax190 (manufactured by Molecular Devices Corporation), and examined for time-dependent changes in the fluorescence intensity at 37° C. for 5 minutes (or 30 minutes) (excitation wavelength 380 nm, detection wavelength 460 nm). A linear approximation of the increase in the fluorescence of the AMC released from the substrate by chymase activity was generated, and its slope was taken as the initial velocity ($Vmax$). […]
Chymase inhibitory activity was determined in the same manner as Example 3.

chymase (recombinant) [13] = target: T2, chymase (recombinant); test: inhibition; SPR not determined; conditions: tags: SIGMA, expressed in yeast; remark: listed apart in the source
Procedure: as §5
The inhibitory activity on chymase was measured in the same manner as in Example 3.

chymase [14] = target: T1, chymase; test: inhibition; angiotensin I; recombinant 0.022; conditions: tags: human skin mast cell, Calbiochem
Procedure: as §1, §2

chymase (recombinant) [15] = target: T2, chymase (recombinant); test: SPR; stronger than 30N; solution C; chymase preparation for SPR not specified; conditions: tags: SIGMA, expressed in yeast
Procedure: (§6) The binding activities against chymase of the nucleic acids shown by SEQ ID NO: 4-20 and 22-34 were determined by the surface plasmon resonance method using Biacore T100 (manufactured by GE Healthcare). The sensor chip used was the SA chip, which had streptavidin immobilized thereon. Bound thereto was about 1500 RU of a 16-nucleotide Poly dT with biotin bound to the 5' end thereof. […] 20 μL of chymase for analyte, prepared at 0.2 μM, was injected. Solution A was used as a running buffer.
The binding activities against chymase of the nucleic acids shown by SEQ ID NO: 38-48 were evaluated by the surface plasmon resonance method. In the evaluations for SEQ ID NO: 38-48, measurements were taken in the same manner as Example 1. Solution C was used as a running buffer.

chymase [16] = target: T1, chymase; test: SPR; stronger than 40N; solution A; conditions: tags: human skin mast cell, Calbiochem
Procedure: as §6

chymase [17] = target: T1, chymase; test: inhibition; angiotensin I; recombinant 0.207; conditions: tags: human skin mast cell, Calbiochem
Procedure: as §1, §2

chymase (recombinant) [18] = target: T2, chymase (recombinant); test: inhibition; Suc-AAPF-MCA, solution C, 37 C; SPR ++; conditions: tags: SIGMA, expressed in yeast
Procedure: as §5

[19] = target: T3, chymase (native, human skin mast cell); test: inhibition; angiotensin I substrate, solution C, 37 C; recombinant 0.003 uM; conditions: tags: Calbiochem
Procedure: as §1, §2

chymase [20] = target: T1, chymase; test: inhibition; angiotensin I; recombinant 0.456; conditions: tags: human skin mast cell, Calbiochem
Procedure: as §1, §2

chymase [21] = target: T1, chymase; test: inhibition; angiotensin I; recombinant 0.446; conditions: tags: human skin mast cell, Calbiochem
Procedure: as §1, §2

B1: 56(18) (ssRNA)
RNA: GGGUUAGAUAGAGUUAAAAACCC
modifications: 2'-F U and C; PS 5-6
IC50 (chymase [1]): 174 nM

B2: SEQ 54 (ssRNA)
RNA: UAACUAUGGUUAGAUAGAGUUAAAAACCAUAGAAGA
modifications: 2'-F U and C
IC50 (chymase [2]): 614 nM

B3: SEQ 13 (ssRNA)
RNA: GGGACGGUAGGAAUUCCGCAACCAUCCCGUAACUAUGGUUAGAUAGAGUUAAAAACCAUAGAAGAGCGGCCGC
modifications: 2'-F pyrimidines
IC50 (chymase (recombinant) [3]): 58 nM
IC50 [4]: 74 nM

B4: SEQ 65 (ssRNA)
RNA: GGCAGAUAGAGUUAAAGCC
modifications: 2'-F U and C
IC50 (chymase [5]): 878 nM

B5: 72(2) (mixed)
mixed: GGGTTAGAUAGAGTUAAAAACCC
modifications: idT-G(M)G(M)G(M)ttAsG(M)aU(F)A(M)GAG(M)tU(F)A(M)A(M)A(M)A(M)A(M)ccc-idT (lower case DNA, s=PS)
IC50 (chymase (recombinant) [6]): 14 nM
IC50 [7]: 76 nM

B6: SEQ 55 (ssRNA)
RNA: CUAUGGUUAGAUAGAGUUAAAAACCAUAG
modifications: 2'-F U and C
IC50 (chymase [8]): 606 nM

B7: SEQ 69 (ssRNA)
RNA: AAAGGGUUAGAUAGAGUUAAAAACCC
modifications: PEG-A(M)A(M)A(M)G(M)G(M)G(M)U(F)U(F)AG(M)A(M)U(F)A(M)GAG(M)U(F)U(F)A(M)A(M)A(M)A(M)A(M)C(F)C(F)C(F)-idT (M=2'-OMe, F=2'-F)
IC50 (chymase (recombinant) [9]): 91 nM

B8: 56(19) (ssRNA)
RNA: GGGUUAGAUAGAGUUAAAAACCC
modifications: 2'-F U and C; PS 6-7
IC50 (chymase [10]): 130 nM

B9: SEQ 56 (ssRNA)
RNA: GGGUUAGAUAGAGUUAAAAACCC
modifications: 2'-F pyrimidines
IC50 [11]: 508 nM
IC50 (chymase (recombinant) [12]): 46 nM

B10: 56(17) (ssRNA)
RNA: GGGUUAGAUAGAGUUAAAAACCC
modifications: 2'-F pyrimidines; 5' 40 kDa branched PEG; 3' idT
IC50 (chymase (recombinant) [13]): 58 nM

B11: SEQ 14 (ssRNA)
RNA: GGGACGGUAGGAAUUCUCGUUCCUGACAGCAUUUGAGAUAGAUUUAAACAAACGCACAUAGAAGAGCGGCCGC
modifications: 2'-F U and C
IC50 (chymase [14]): 63 nM

B12: SEQ 39 (ssRNA)
RNA: GGGAGCAGGAGAGAGGUCAGAUGGUUACGGAUAGAGUUAAGGUAACGGUACGGCCUAUGCGUGCUAGUGUGA
modifications: 2'-F pyrimidines
binding result (chymase (recombinant) [15]): binds

B13: SEQ 10 (ssRNA)
RNA: GGGACGGUAGGAAUUCCGCCGCCUAAAAAACGACGAUAUUACAGAAACGUCAAAUACAUAGAAGAGCGGCCGC
modifications: 2'-F U and C
binding result (chymase [16]): binds

B14: 56(27) (ssRNA)
RNA: GGGUUAGAUAGAGUUAAAAACCC
modifications: PEG-G(M)G(M)G(M)U(F)U(F)AG(M)A(M)U(F)A(M)GAG(M)U(F)U(F)A(M)A(M)A(M)A(M)A(M)C(F)C(F)C(F)-idT (M=2'-OMe, F=2'-F)
IC50 (chymase (recombinant) [9]): 84 nM

B15: 56(1) (ssRNA)
RNA: GGGUUAGAUAGAGUUAAAAACCC
modifications: 2'-F U and C; 5' and 3' idT
IC50 (chymase [17]): 404 nM

B16: SEQ 7 (ssRNA)
RNA: GGGACGGUAGGAAUUCACCUUUCCAAUUGUGAAAGAAACACAAAAAGAAAUGACAUCAUAGAAGAGCGGCCGC
modifications: 2'-F U and C
binding result (chymase [16]): binds

B17: 72(8) (mixed)
mixed: GGGTTAGAUAGAGTUAAAAACCC
modifications: B-idT-G(M)G(M)G(M)ttAG(M)aU(F)A(M)GAG(M)tU(F)A(M)A(M)A(M)A(M)A(M)ccc-idT (lower case DNA, B=biotin)
IC50 (chymase (recombinant) [9]; label: biotin): 18 nM

B18: SEQ 4 (ssRNA)
RNA: GGGACGGUAGGAAUUCGUCCAUUCUACAGAUAGAGAUAAAGUAGAAUUUAACAAAACAUAGAAGAGCGGCCGC
modifications: 2'-F pyrimidines
IC50 (chymase (recombinant) [18]): 49 nM
IC50 [19]: 31 nM

B19: 56(17) (ssRNA)
RNA: GGGUUAGAUAGAGUUAAAAACCC
modifications: 2'-F U and C; 5' PEG 40 kDa; 3' idT
IC50 (chymase [20]): 613 nM

B20: SEQ 53 (ssRNA)
RNA: GGGUAACUAUGGUUAGAUAGAGUUAAAAACCAUAGAAGACCC
modifications: 2'-F U and C
IC50 (chymase [21]): 764 nM
